Measurements as given in publication PMC6925320.

What follows are substances tested against lipolysis-stimulated lipoprotein receptor (LSR) on Caco-2 cells (human (endogenous in Caco-2)) (UniProt Q86X29) (assay: flow cytometry on cells).
Sequence of UniProt Q86X29 (Q86X29 whole entry): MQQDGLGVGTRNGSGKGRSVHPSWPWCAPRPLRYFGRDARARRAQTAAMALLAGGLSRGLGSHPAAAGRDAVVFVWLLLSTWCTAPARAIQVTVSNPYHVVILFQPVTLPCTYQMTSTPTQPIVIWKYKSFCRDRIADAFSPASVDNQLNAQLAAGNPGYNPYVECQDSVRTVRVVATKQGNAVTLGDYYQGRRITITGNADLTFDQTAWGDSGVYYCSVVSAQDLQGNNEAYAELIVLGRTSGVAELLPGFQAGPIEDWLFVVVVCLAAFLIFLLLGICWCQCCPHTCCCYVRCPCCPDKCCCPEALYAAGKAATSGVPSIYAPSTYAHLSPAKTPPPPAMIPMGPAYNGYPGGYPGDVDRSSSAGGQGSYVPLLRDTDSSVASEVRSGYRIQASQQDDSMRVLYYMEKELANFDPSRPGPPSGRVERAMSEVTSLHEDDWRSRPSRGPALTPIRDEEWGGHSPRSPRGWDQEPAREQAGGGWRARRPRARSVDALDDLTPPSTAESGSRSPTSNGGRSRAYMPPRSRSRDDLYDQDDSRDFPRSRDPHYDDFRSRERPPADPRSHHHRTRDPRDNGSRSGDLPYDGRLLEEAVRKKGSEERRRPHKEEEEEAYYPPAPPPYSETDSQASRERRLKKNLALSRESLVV
“Alexa-647-labeled CDTb I852E (from UniProt Q9KH41 43-876) (natural protein)” was tested, and the Kd was 75 nM.
With “Alexa-647-labeled CDTb Y812D (from UniProt Q9KH41 43-876) (natural protein)” the Kd was 3.9 nM.
Substance “Alexa-647-labeled CDTb T854E (from UniProt Q9KH41 43-876) (natural protein)” has a Kd of 38 nM.
“Alexa-647-labeled CDTb, wild type (from UniProt Q9KH41 43-876) (natural protein)” gave a Kd of 4.5 nM.
“Alexa-647-labeled CDTb F774D (from UniProt Q9KH41 43-876) (natural protein)” showed a Kd of over 50 nM.

The substances below were run against trypsin-activated CDTb (cell-binding component of the C. difficile transferase toxin), oligomer (Clostridioides difficile strain R20291) (UniProt Q9KH41) (assay: cryo-EM structure).
In the case of “trypsin-activated CDTb (cell-binding component of the C. difficile transferase toxin), oligomer (from UniProt Q9KH41 43-876) (natural protein)”, the stoichiometry N is reported as 7.
